In paper PMC3488000:

Assays:
Assay in all cases: SEC; Superdex 200 on an AKTA FPLC, 20 mM Tris, 1M NaCl, pH 8.0; column calibrated with globular protein standards; oligomeric state = estimated net mass divided by the calculated monomer mass (16.3 kDa)
[1] = target: FbFP F37S (Pseudomonas putida KT2440) (UniProt Q88JB0)
[2] = target: FbFP F37T (Pseudomonas putida KT2440) (UniProt Q88JB0)
[3] = target: flavin-binding fluorescent protein (FbFP) from Pseudomonas putida (Pseudomonas putida KT2440) (UniProt Q88JB0)

FbFP F37S (from UniProt Q88JB0 1-151) (natural protein)
stoichiometry N [1]: 1.78

FbFP F37T (from UniProt Q88JB0 1-151) (natural protein)
stoichiometry N [2]: 1.87

flavin-binding fluorescent protein (FbFP) from Pseudomonas putida (from UniProt Q88JB0 1-151) (natural protein)
stoichiometry N [3]: 1.81
